# Source: patent US11767353B2, “Trail compositions with reduced immunogenicity” (Theraly Fibrosis, Inc., priority 2020, dated 2023)
# How the values were obtained:
# [1] = Formulation stability and freeze-thaw stability; format: physicochemical
# Description: The stability may be evaluated by measuring the ratio of soluble material to the insoluble material that can be separated by centrifugation. The intact structure of stored material can also be confirmed by IEX-HPLC (SP-NPR) and RP-HPLC (C4).
# [2] = test system: activated human primary pancreatic stellate cells (PSCs); assay: Caspase 3/7 activity and immunoblot in activated pancreatic stellate cells; format: cell-based; settings: TLY012 30 or 100 ng/ml for 3h
# Experimental: Human primary pancreatic stellate cells (PSCs) and stellate cell medium (SteCM) were obtained from ScienCell Research Laboratories (Carlsbad, Calif.). PSCs were cultured on Poly-L-Lysine coated plates in SteCM medium supplemented with 2% of FBS, 1% of stellate cell growth supplement, and 1% of penicillin/streptomycin solution according to the manufacturer's instructions. Pancreatic cancer associated fibroblasts (CAF08) and maintenance media (PC00B5) were obtained from Vitro Biopharma. 100 of PSCs were culture-activated for 7 to have the confluent population of activated cells or 2×10^4 cells of CAF08 were cultured on a 96 well microplate (Corning, CLS3917) for 24h and were incubated with TLY012 (at 30 ng/ml or 100 ng/ml) for 3h. After incubation, 50 μL of Caspase 3/7 substrate/lysis buffer was added to each well and incubated for 30 min after 30 min of equilibration period to room temperature. The luminescence of each sample was measured on a plate reader (Bio-Tek Instruments Inc) with parameters of 1 min lag time and 0.5 sec/well-read time (n=3).
# For immunoblot, 100 of PSCs were culture activated on a 6 well plate for 7 days or 2×10^5 of CAF08 cells were plated on 6-well plates followed by control treatment or treatment with TLY012 (at 30 ng/ml or 100 ng/ml) for 3h. The lysates from the cells were tested for the presence of Cl.PARP-1 and SMA using Western bot.
# [3] = test system: Human Colon Carcinoma Fibroblasts HC-6231; assay: Caspase 3/7 activity in colon cancer associated fibroblasts; format: cell-based; settings: TLY012 0-1000 ng/ml for 3h, FIG. 12A
# Description: Human Colon Carcinoma Fibroblasts HC-6231 were obtained from Cell Biologics (Catalog Number HC-6231) and maintained in fibroblast media (Cell Biologics, Catalog Number M2267).
# [4] = test system: orthotopic xenografts of mouse KPC cells (UN-KPC-960); assay: Orthotopic pancreatic xenografts of mouse KPC cells in B6.129 mice; format: in vivo
# Experimental: To generate the solid tumor, 10^7 of mouse pancreatic ductal adenocarcinoma UN-KPC-960-luc2 cells suspended in 100 μl PBS were inoculated into flank of syngeneic B6.129 mice. The KPC tumors from the donor mice were excised under sterile conditions once the tumor was grown up to […] in diameter. The donor tumors were cut into 1-1.5 mm^3 pieces using surgical blade.
# For the orthotopic xenograted tumors in pancreas, a laparotomy via left flank incision was performed to expose the pancreatic head and donor tumor pieces were inserted into the pancreas of recipient B6.129 mice (n=7/group) followed by closing in two layers with 5-0 absorbable sutures. Two weeks after the tumor transplantation, mice were injected with TLY012 via intraperitoneal route (10 mg/kg, every other day) and/or anti-PD-L1 (B7-H1, anti-mouse PD-L1, 2.5 mg/kg, twice of a week) for 2 weeks. Transplanted animals were imaged once a week for 5 weeks. Bioluminescent images using IVIS were acquired 10-15 minutes after intraperitoneal administration of D-Luciferin (150 mg/kg) (GOLDBIO, St. Louis, Mo., USA).
# For tumor volume studies, orthotopic xenograted tumors were generated in pancreas. A laparotomy via left flank incision was performed to expose the pancreatic head and 5×10^6 of UN-KPC-960 cells were transplanted into the pancreas of recipient B6.129 mice (n=5/group) followed by closing in two layers with 5-0 absorbable sutures. four weeks after the transplantation, mice were injected with TLY012 via intraperitoneal route (10 mg/kg, every other day) or saline for 2 weeks. Then excised tumors were studied by: a) captured image and tumor volume of ½ab^2, and b) measured collagen and α-SMA positive area after TLY012 treatment using Sirius red and anti-α-SMA staining
# Paraffin sectioned KPC tumor samples were used for immunofluorescence staining (IF) stain with α-SMA and either CD4 or CD8. Tissues were deparaffinized, hydrated, and heated in citrate buffer (Thermo Fisher Scientific) by microwave for antigen retrieval. Slides were washed, treated with blocking solution (3% of normal horse serum, Vectastain ABC System, Vector Labs, Burlingame, Calif.), and primary antibodies, rabbit anti-CD4 antibody (Abcam, ab183685) or rabbit anti-CD8 antibody (Abcam, ab217344) were applied with mouse anti-α-SMA antibody. Tissues were incubated overnight at 4° C., washed and anti-rabbit IgG conjugated with Alexa fluor 488 and anti-mouse IgG conjugated with Alexa fluor 633 (Thermo Fisher Scientific) were applied and incubated at room temperature. After washing the slides, samples were mounted with Fluorescence Mounting Medium with DAPI and captured under Axiovert microscope (Carl Zeiss Microscopy, LLC. Thornwood, N.Y.).
# The excised tumors were immediately fixed in 10% buffered formalin, embedded in paraffin, and cut at 4 μm thickness. The sections were then stained for Masson's Trichrome or Sirius-Red staining for determining the collagen deposition. Stained tissues were imaged under a light microscope (Nikon Eclipse E600 connected with Nikon DS-Fi2 camera, Nikon USA). Stained pancreatic tissues were randomly selected 10 photos from individual mice, and the positively stained area was quantified using Image J software (NIH, Bethesda, Md.).
# [5] = Single-dose pharmacokinetics in Cynomolgus monkeys (ELISA, serum)
# Description: PK parameters were addressed in Cynomolgus monkeys. This was a single dose, parallel group, dose escalation study in 5 males and 5 females normal Cynomolgus monkeys ranging in age from 34 to 44 months. At the start date of the study body weights ranged from 2.9 to 3.9 kg for males and 2.9 to 3.2 kg for females. Blood samples were collected at time point indicated in Table 3 and serum samples prepared for analyzing drug levels.
# A sandwich enzyme-linked immunosorbent assay (ELISA) for human TRAIL was developed to measure the concentrations of TLY012 in monkey serum. Briefly, serum samples were diluted in 0.5% normal monkey serum and incubated with anti-TRAIL capturing antibodies immobilized on ELISA plates. Test samples were analyzed at 1:200-1:168000 dilutions (depending on the predicted concentrations) to fit into the range of the standard curve (97 pg/mL-12.5 ng/mL). All data within the assay range were reported and provided for pharmacokinetic analysis
# A compartment model independent pharmacokinetic analysis was conducted on dose and serum concentration-time data with Phoenix 64 WinNonlin software. The parameters addressed: maximum serum concentrations (Cmax), time (Tmax) to reach Cmax, time (Tlast) to reach the last quantifiable concentration (Clast), elimination half-life (t½). Area under the curve from zero to Clast (AUClast), the total area under the curve from zero to infinity (AUC). Total systemic clearance (CL) and steady state volume of distribution (Vss) was calculated for IV group. Clearance (CL/F) and volume of distribution (Vz/F) and bioavailability (F) was computed for the SC groups. In addition, dose-exposure relationship was evaluated by linear regression analysis.
substance,measurement,setting,value
TLY012: PEGylated (5 kDa PEG-aldehyde) recombinant human TRAIL (114-281) fused to modified isoleucine zipper (miLZ) at N-terminus; SEQ ID NO:30 trimer,resistance to multiple freeze-thaw cycles,"[1]; formulated at 21-22 mg/mi, biological activity and HPLC appearance",resistant to multiple freeze-thaw cycles
same,concentration at which formulation was stable,"[1]; in the presence of physiological concentrations of salt, no detectable precipitation, same IEX-HPLC pattern",up to 25 mg/ml
same,"Cl.PARP-1, immunoblot",[2],detected
same,caspase 3/7 activity (RLU),[2]; vs control treatment,activated caspase 3/7
same,apoptosis by Caspase3/7 activity assay,[3],induced apoptosis
same,Percent survival,[4]; Day 0,100%
same,"Bioluminescence activity (Total Counts), Mean",[4]; Day 14,72300 Total Counts
same,"Bioluminescence activity (Total Counts), Mean",[4]; Day 21,233157.143 Total Counts
same,"Bioluminescence activity (Total Counts), Mean",[4]; Day 28,185128.571 Total Counts
same,"Bioluminescence activity (Total Counts), Mean",[4]; Day 35,390357.143 Total Counts
same,Percent survival,[4]; Day 35,100%
same,"tumor volume, Average","[4]; TLY012 i.p. 10 mg/kg every other day and/or anti-PD-L1 2.5 mg/kg twice a week, 2 weeks",135.0695 mm3
same,"levels of collagen (fibrosis), immunohistochemistry",[4]; TLY012 i.p. 10 mg/kg every other day for 2 weeks,decreased the levels of collagen
same,tumor volume compared to the saline-treated group,"[4]; TLY012 i.p. 10 mg/kg every other day for 2 weeks, FIG. 14",reduced the tumor volume
same,"cytotoxic T cell (CD4, CD8) infiltration to the tumor site","[4]; double immunofluorescence staining, vs saline",enhanced cytotoxic T cell infiltration to the tumor site
same,AUC,"[5]; IV 10 mg/kg, female (ID 401)",7780 µg·h/mL
same,AUCext,"[5]; IV 10 mg/kg, female (ID 401)",0.185%
same,Cmax,"[5]; IV 10 mg/kg, female (ID 401)",319 µg/mL
same,Tlast,"[5]; IV 10 mg/kg, female (ID 401)",360 h
same,Tmax,"[5]; IV 10 mg/kg, female (ID 401)",0.250 h
same,AUC,"[5]; IV 10 mg/kg, male (ID 1)",8590 µg·h/mL
same,AUCext,"[5]; IV 10 mg/kg, male (ID 1)",0.411%
same,Cmax,"[5]; IV 10 mg/kg, male (ID 1)",289 µg/mL
same,Tlast,"[5]; IV 10 mg/kg, male (ID 1)",360 h
same,Tmax,"[5]; IV 10 mg/kg, male (ID 1)",0.250 h
same,AUC,"[5]; SC 2 mg/kg, female (ID 501)",836 µg·h/mL
same,AUCext,"[5]; SC 2 mg/kg, female (ID 501)",1.45%
same,Cmax,"[5]; SC 2 mg/kg, female (ID 501)",12.1 µg/mL
same,F (absolute bioavailability),"[5]; SC 2 mg/kg, female (ID 501)",53.7%
same,Tlast,"[5]; SC 2 mg/kg, female (ID 501)",264 h
same,Tmax,"[5]; SC 2 mg/kg, female (ID 501)",12.0 h
same,AUC,"[5]; SC 2 mg/kg, male (ID 101)",642 µg·h/mL
same,AUCext,"[5]; SC 2 mg/kg, male (ID 101)",0.779%
same,Cmax,"[5]; SC 2 mg/kg, male (ID 101)",10.8 µg/mL
same,F (absolute bioavailability),"[5]; SC 2 mg/kg, male (ID 101)",37.4%
same,Tlast,"[5]; SC 2 mg/kg, male (ID 101)",264 h
same,Tmax,"[5]; SC 2 mg/kg, male (ID 101)",6.00 h
same,AUC,"[5]; SC 10 mg/kg, female (ID 601)",6190 µg·h/mL
same,AUCext,"[5]; SC 10 mg/kg, female (ID 601)",0.266%
same,Cmax,"[5]; SC 10 mg/kg, female (ID 601)",52.7 µg/mL
same,F (absolute bioavailability),"[5]; SC 10 mg/kg, female (ID 601)",79.6%
same,Tlast,"[5]; SC 10 mg/kg, female (ID 601)",264 h
same,Tmax,"[5]; SC 10 mg/kg, female (ID 601)",48.0 h
same,AUC,"[5]; SC 10 mg/kg, male (ID 201)",6480 µg·h/mL
same,AUCext,"[5]; SC 10 mg/kg, male (ID 201)",0.0231%
same,Cmax,"[5]; SC 10 mg/kg, male (ID 201)",51.7 µg/mL
same,F (absolute bioavailability),"[5]; SC 10 mg/kg, male (ID 201)",75.4%
same,Tlast,"[5]; SC 10 mg/kg, male (ID 201)",360 h
same,Tmax,"[5]; SC 10 mg/kg, male (ID 201)",24.0 h
same,AUC,"[5]; SC 50 mg/kg, female (ID 701)",44200 µg·h/mL
same,AUCext,"[5]; SC 50 mg/kg, female (ID 701)",1.28%
same,Cmax,"[5]; SC 50 mg/kg, female (ID 701)",296 µg/mL
same,F (absolute bioavailability),"[5]; SC 50 mg/kg, female (ID 701)",114%
same,Tlast,"[5]; SC 50 mg/kg, female (ID 701)",360 h
same,Tmax,"[5]; SC 50 mg/kg, female (ID 701)",24.0 h
same,AUC,"[5]; SC 50 mg/kg, male (ID 301)",33400 µg·h/mL
same,AUCext,"[5]; SC 50 mg/kg, male (ID 301)",3.13%
same,Cmax,"[5]; SC 50 mg/kg, male (ID 301)",186 µg/mL
same,Tlast,"[5]; SC 50 mg/kg, male (ID 301)",264 h
same,Tmax,"[5]; SC 50 mg/kg, male (ID 301)",72.0 h
same,F (absolute bioavailability),"[5]; SC 50 mg/kg, male (ID 301), 50 mg/kg",77.88%
same,F (absolute bioavailability),"[5]; SC 50 mg/kg, male (ID 301), listed as TYL012, 50 mg/kg",77.8%
same,dose relationship of maximum serum (Cmax) concentrations,[5]; dose range 2-50 mg/kg,increased dose proportionately
